Laboratory results as given in the RNAGym collection of RNA variant scans (doi:10.7554/elife.80360).

B1: HDV Ribozyme (parent)
chain: GGCCGGCAUGGUCCCAGCCUCCUCGCUGGCGCCGGCUGGGCAACAUUCCGAGGGGACCGUCCCCUCGGUAAUGGCGAAUGGGACCCA

Variants of: B1
Assay: self-cleavage, relative activity (ratio to wild type); higher = more cleavage; co-transcriptional
G17U G34A showed a self-cleavage of 0.13.
For G35A U65A, the self-cleavage was 0.61.
Work on C18G C64U yielded a self-cleavage of 0.147.
For G29A U69G, the self-cleavage was 0.0475.
Variant C36A A70U has a self-cleavage of 0.163.
Work on A8U C62U yielded a self-cleavage of 0.989.
C15A G82C showed a self-cleavage of 0.415.
For C49U G54A, the self-cleavage was 1.02.
With G28U U72G the self-cleavage was 0.0554.
With U60C U65A the self-cleavage was 1.27.
Work on C66U A78C yielded a self-cleavage of 0.178.
Work on C13U G40C yielded a self-cleavage of 0.0739.
Work on G5U G10C yielded a self-cleavage of 0.462.
For U37G G74A, the self-cleavage was 0.229.
A42G C48A showed a self-cleavage of 0.7.
Variant G2C G6A has a self-cleavage of 0.0839.
For G2C G29C, the self-cleavage was 0.109.
Variant A42U U47C has a self-cleavage of 0.394.
For G74U A77C, the self-cleavage was 0.123.
For G25A G76C, the self-cleavage was 0.217.
G5U A71U showed a self-cleavage of 0.185.
U23G G34U gave a self-cleavage of 0.0959.
With G31U U47C the self-cleavage was 0.383.
For G5C C62U, the self-cleavage was 0.222.
Work on C19U G67U yielded a self-cleavage of 0.145.
With G1C G34C the self-cleavage was 0.0594.
Variant U37C A51G has a self-cleavage of 0.966.
For G25U U79A, the self-cleavage was 0.0875.
Variant G52A G68C has a self-cleavage of 0.436.
U12G C41U showed a self-cleavage of 0.982.
In the case of C32G A45G, the self-cleavage is reported as 0.0811.
U12G C85G gave a self-cleavage of 0.369.
With C63G C64A the self-cleavage was 0.862.
In the case of A8C C36U, the self-cleavage is reported as 0.712.
Variant G11A A42C has a self-cleavage of 0.101.
With U47C G54U the self-cleavage was 1.14.
In the case of G67A A87U, the self-cleavage is reported as 1.06.
G67A A87C showed a self-cleavage of 0.956.
For C41G C58U, the self-cleavage was 0.746.
For U37A C57G, the self-cleavage was 0.213.
In the case of C3A C26A, the self-cleavage is reported as 0.795.
U72A C86G gave a self-cleavage of 0.674.
With C4A G31A the self-cleavage was 0.0415.
U12C C64G gave a self-cleavage of 0.308.
Variant C3G U65C has a self-cleavage of 0.817.
G5A C19G gave a self-cleavage of 0.0898.
For G31U G34C, the self-cleavage was 0.117.
C21U C26A gave a self-cleavage of 0.383.
Variant A45C C63G has a self-cleavage of 0.427.
Work on C19A A77G yielded a self-cleavage of 0.0302.
C7U G31U showed a self-cleavage of 0.575.
Variant G76U A83C has a self-cleavage of 0.755.
C21G U72G gave a self-cleavage of 0.0462.
For C30G A51C, the self-cleavage was 0.142.
In the case of G34U A71C, the self-cleavage is reported as 0.161.
U20C G81U showed a self-cleavage of 0.
Work on U69G A87G yielded a self-cleavage of 0.876.
Variant A43U C84A has a self-cleavage of 0.346.
With C14G G31C the self-cleavage was 0.145.
In the case of C21A C66U, the self-cleavage is reported as 0.0683.
For C84G C85A, the self-cleavage was 0.928.
Variant C7A C32A has a self-cleavage of 0.332.
Variant U69G G74A has a self-cleavage of 0.614.
A42C A51U gave a self-cleavage of 0.369.
Variant G11A A56C has a self-cleavage of 0.298.
Variant C13U C63A has a self-cleavage of 0.542.
C26U C30G gave a self-cleavage of 0.0941.
For C18A G40C, the self-cleavage was 0.162.
For U27A U46A, the self-cleavage was 0.831.
U9G G55A gave a self-cleavage of 0.962.
With G1A A42U the self-cleavage was 0.123.
With C75U G82C the self-cleavage was 0.108.
Work on G31C A45U yielded a self-cleavage of 0.0437.
Work on C18A C85G yielded a self-cleavage of 0.0475.
G6C U79A gave a self-cleavage of 0.119.
C22G C86U showed a self-cleavage of 0.0923.
U60A A77G showed a self-cleavage of 1.14.
Variant C21A C62A has a self-cleavage of 0.185.
In the case of C19U U72A, the self-cleavage is reported as 0.0504.
C4A U37A showed a self-cleavage of 0.0332.
Variant U79C G80A has a self-cleavage of 0.129.
With A43C U79G the self-cleavage was 0.227.
U37G C62G gave a self-cleavage of 0.0791.
G54A G67A gave a self-cleavage of 0.698.
For C14A G53U, the self-cleavage was 0.848.
G39U G76A showed a self-cleavage of 0.67.
In the case of G1A G68U, the self-cleavage is reported as 0.178.
In the case of A42G C61A, the self-cleavage is reported as 0.779.
A51G C64U gave a self-cleavage of 0.892.
C32A C41U gave a self-cleavage of 0.143.
Variant G28A G81A has a self-cleavage of 0.101.
With C33A U79A the self-cleavage was 0.128.
With G52A U69G the self-cleavage was 0.955.
Work on U72A A78C yielded a self-cleavage of 0.125.
A51U C58G showed a self-cleavage of 0.997.
Variant U12A A83G has a self-cleavage of 0.302.
With A8G G35U the self-cleavage was 0.306.
Variant C3G U27G has a self-cleavage of 0.479.
For C15G G68C, the self-cleavage was 0.511.
Variant G1C G53A has a self-cleavage of 0.193.
With G10U A71G the self-cleavage was 0.799.
In the case of G40C G80U, the self-cleavage is reported as 0.0817.
G31C U47A gave a self-cleavage of 0.467.
For C15A C86U, the self-cleavage was 0.831.
With U60G C66G the self-cleavage was 1.05.
In the case of G55A G68A, the self-cleavage is reported as 0.831.
Work on G34C C57U yielded a self-cleavage of 0.188.
For C3G G10U, the self-cleavage was 0.193.
U12A G68U showed a self-cleavage of 0.312.
U12A G68A gave a self-cleavage of 0.155.
For G2A U23G, the self-cleavage was 0.0886.
Variant G2U G54U has a self-cleavage of 0.0589.
Variant G1U G40A has a self-cleavage of 0.426.
G31C C33U showed a self-cleavage of 0.123.
For A8C G39C, the self-cleavage was 0.0615.
Work on C19A C58A yielded a self-cleavage of 0.095.
With G28C C63G the self-cleavage was 0.101.
For G28C C63A, the self-cleavage was 0.17.
Work on C41U G68U yielded a self-cleavage of 0.504.
For A16U C48A, the self-cleavage was 1.07.
A16U C63U showed a self-cleavage of 1.14.
A56G A71G gave a self-cleavage of 0.918.
With G25U C58U the self-cleavage was 0.217.
Variant U9C U23G has a self-cleavage of 0.831.
Variant C44U C48U has a self-cleavage of 0.898.
In the case of C66A, the self-cleavage is reported as 0.975.
Variant G38A C85U has a self-cleavage of 0.128.
Work on G73A G82C yielded a self-cleavage of 0.172.
Variant U37G A56G has a self-cleavage of 0.0665.
C32G C64A gave a self-cleavage of 0.0755.
With C18U U20C the self-cleavage was 0.0923.
G25C C44G showed a self-cleavage of 0.101.
With G6C U65C the self-cleavage was 0.277.
G50A gave a self-cleavage of 0.98.
With G76U C86U the self-cleavage was 0.852.
For C3U C61G, the self-cleavage was 0.816.
With C3A G80C the self-cleavage was 0.111.
Variant U37A G68U has a self-cleavage of 0.0845.
Work on A16G C84U yielded a self-cleavage of 0.525.
G40A G82C gave a self-cleavage of 0.0665.
Work on G28C A71U yielded a self-cleavage of 0.0426.
Variant G2U U72G has a self-cleavage of 0.
Work on G76U A77G yielded a self-cleavage of 0.978.
G55C G76U showed a self-cleavage of 1.06.
Variant A45G A78U has a self-cleavage of 0.225.
For C21G C33A, the self-cleavage was 0.
For U23G G29U, the self-cleavage was 0.
Work on G17C U65A yielded a self-cleavage of 0.353.
For C15U G54C, the self-cleavage was 1.
Variant A8U G31U has a self-cleavage of 0.0475.
U9C G76C showed a self-cleavage of 1.11.
Work on U12A C32G yielded a self-cleavage of 0.225.
In the case of U47A C48U, the self-cleavage is reported as 0.923.
Work on G1A G5A yielded a self-cleavage of 0.0755.
Work on G10A G34A yielded a self-cleavage of 0.164.
Variant A8G C75A has a self-cleavage of 0.0692.
For C41A A70G, the self-cleavage was 0.916.
Variant C19U C41G has a self-cleavage of 0.116.
For G55A U65A, the self-cleavage was 1.06.
Variant U27G A70C has a self-cleavage of 0.554.
For U9A C49A, the self-cleavage was 0.554.
A8U G81U showed a self-cleavage of 0.175.
C36G A87C showed a self-cleavage of 0.146.
For G80A C85A, the self-cleavage was 0.408.
Work on G5C A56C yielded a self-cleavage of 0.
Variant A16U G35C has a self-cleavage of 0.128.
For C4G C36U, the self-cleavage was 0.0504.
